Data: US20260224761A1, “DUAL LABELLED COMPOUNDS TARGETING THE PROSTATE SPECIFIC MEMBRANE ANTIGEN” (priority 2023, published 2026)
Where two headings read alike, the source gives them in different places.

Columns and labels:
[1] = Photophysical characterization (molar extinction coefficient, quantum yield, brightness) in human serum albumin solution; type: physicochemical; details: for Brightness (HSA): multiplication of molar extinction coefficient and quantum yield
Experimental: (§1) Quantum yield, molar extinction coefficient and serum protein binding experiments were performed according to previously published procedures (Hensbergen A. W. et al., Dyes and Pigments, 2018, 152, 19-28).
Table 1 summarizes the photophysical properties of [^99mTc]PSMA-HSG, [^99mTc]mas3-Cy5(SO3)—EuK and [^99mTc]mas3-(SO3)Cy5(SO3)—EuK and of the different sulfonated Cy5-dyes used for their preparation. […] Because of this latter effect we analyzed the brightness (as multiplication of the molar extinction coefficient and the quantum yield) in humans serum albumin for all three hybrid PSMA agents included in this study (see Table 1). While we indeed see that increasing of the number of sulfonates on the cyanine dye has a positive effect on the brightness all remain within the same order of magnitude.
Because of this latter effect, we analyzed the brightness (as multiplication of the molar extinction coefficient and the quantum yield) in human serum albumin solution for all three hybrid PSMA agents included in this study (see Table 1). While we indeed see that increasing of the number of sulfonates on the cyanine dye has a positive effect on the brightness, all remain within the same order of magnitude.

PSMA [2] = target: T1, PSMA (Homo sapiens, UniProt Q04609); experiment: Competitive binding experiments (IC50) using PSMA-expressing LNCaP cells and ([125I]I-BA)EuK as standard radioligand
T1 construct: using PSMA-expressing LNCaP cells and ([^125I]I-BA)EuK as standard radioligand; endogenous in cells; host or cells: LNCaP cells
T1 sequence (Q04609 whole entry): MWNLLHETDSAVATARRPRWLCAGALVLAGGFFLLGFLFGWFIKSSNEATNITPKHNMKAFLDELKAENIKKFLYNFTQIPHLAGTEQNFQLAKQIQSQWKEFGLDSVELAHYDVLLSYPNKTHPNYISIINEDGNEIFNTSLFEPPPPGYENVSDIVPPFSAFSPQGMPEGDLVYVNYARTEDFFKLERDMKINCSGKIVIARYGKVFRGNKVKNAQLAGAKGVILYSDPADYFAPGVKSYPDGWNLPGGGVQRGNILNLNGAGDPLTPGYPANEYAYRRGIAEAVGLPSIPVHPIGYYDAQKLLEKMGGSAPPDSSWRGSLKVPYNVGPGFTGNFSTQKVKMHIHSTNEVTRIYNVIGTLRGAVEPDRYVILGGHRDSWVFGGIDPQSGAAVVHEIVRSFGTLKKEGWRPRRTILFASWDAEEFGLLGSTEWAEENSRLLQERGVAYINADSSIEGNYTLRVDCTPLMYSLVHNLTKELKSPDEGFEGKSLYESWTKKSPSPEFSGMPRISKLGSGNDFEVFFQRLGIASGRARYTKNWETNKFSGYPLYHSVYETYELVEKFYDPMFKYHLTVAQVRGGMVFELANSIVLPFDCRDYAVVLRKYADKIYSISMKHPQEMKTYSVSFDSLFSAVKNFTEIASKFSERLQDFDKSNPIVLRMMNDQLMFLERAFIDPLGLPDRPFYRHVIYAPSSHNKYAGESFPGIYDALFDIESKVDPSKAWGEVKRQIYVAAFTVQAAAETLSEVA
Experimental: Competitive binding experiments (IC50) were carried out in accordance with an established protocol ([…]. et al., Eur. J. Nuc. Mol. Med. Imaging Res., 2014, 4, 63) using PSMA-expressing LNCaP cells and ([^125I]I-BA)EuK as standard radioligand.

plasma proteins = experiment: Plasma protein binding; type: in vitro ADME
Experimental: as §1

[3] = system: PC3-Pip xenografts in NSG mice; experiment: In vivo and ex vivo fluorescence imaging of PC3-Pip xenografts in NSG mice; details: for detectable fluorescence signal: 6 h p.i., 0.1 nmol ligand
Experimental: FIG. 3: In vivo (A) and ex vivo (B) fluorescence imaging of PC3-Pip xenografts in NSG mice using PSMA-HSG (upper two rows), the reference Ac-mas3-Cy5(SO3)—EuK (middle two rows) and Ac-mas3-(SO3)Cy5(SO3)—EuK (lower two rows). Conditions were 2 h p.i. using a peptide dose of 1 nmol/mouse and 6 h p.i. using a peptide dose of 0.1 nmol/mouse, respectively (n=1 per condition). In vivo and ex vivo fluorescence imaging of intact tumors was performed using a clinical-grade fluorescence KARL STORZ Endoscope; fluorescence confocal imaging of 2 mm tumor slices (right) was performed using a Leica SP8 WLL microscope.
In vivo fluorescence imaging of PC3-Pip xenografts in NSG mice (2 h p.i. at a ligand dose of 1 nmol and 6 h p.i. at a ligand dose of 0.1 nmol, respectively; n=1 per compound and condition) was performed using a clinical-grade fluorescence laparoscopy set-up (KARL STORZ Endoskope GMBh & Co. KG). Cy5-based tumor imaging was performed using D-light P system and a prototype modified IMAGE 1 S light source with integrated Cy5 filter (both KARL STORZ Endoskope GMBh & Co. KG). Images were recorded using integrated KARL STORZ software and image processing was performed using in-house developed MATLAB software that provided a signal intensity-based representation of the signal-to-background ratio (SBR; Azargoshasb S. et al., Mol. Imaging Biol., 2022, https://doi.org/10.1007/s11307-022-01736-y; de Barros H. A. et al., Eur. Urol., 2022, 82, 97-105).
Fluorescence Confocal Imaging of Excised Tumor Specimens After in vivo imaging tumor specimens (N=1 per tracer) were excised and cut into 2 mm slices. Prior to imaging, slices were placed on a 35-mm culture dish containing a glass insert (MatTek Co.). Fluorescence confocal imaging was then performed using a Leica SP8 WLL microscope (Leica Microsystems). For assessment of tracer uptake Cy5 settings were used; λex=633 nm, λem=650-700 nm. Images were processed using accompanying LASX software (Leica Application Software Suite 4.8).

Plasma protein binding = type: in vitro ADME; details: plasma
Experimental: as §1

PSMA [4] = target: T1, PSMA; details: LNCaP cells; reference compounds, assayed under identical conditions (literature cited in table title); # = free mas3-chelator; cited from earlier work
[5] = Lipophilicity, modified shake-flask method; type: physicochemical
Experimental: The lipophilicity of [^99mTc]PSMA-HSG, [^99mTc]EuK(SO3)Cy5-mas3 and [^99mTc]EuK(SO3)Cy5(SO3)-mas3 was determined via a modified shake-flask method as described ([…]. et al., Eur. J. Nuc. Mol. Med. Imaging Res., 2014, 4, 63).

[6] = Biodistribution in LNCaP xenograft bearing NSG mice; type: in vivo; details: NSG, mouse, in vivo, iv, 0.1 nmol/animal, total radioactivity, Biodistribution: LNCaP tumor
Experimental: The biodistribution of [^99mTc]PSMA-HSG, [^99mTc]EuK(SO3)Cy5-mas3 and [^99mTc]EuK(SO3)Cy5(SO3)-mas3 was investigated in LNCaP xenograft bearing NSG mice. […] (0.1 nmol-cohort), respectively.
To assess the influence of the different ligand designs of [^99mTc]PSMA-HSG and [^99mTc]mas3-(SO3)Cy5(SO3)—EuK on in vivo PSMA-targeting and general pharmacokinetics, their in vivo biodistribution was investigated in LNCaP xenograft bearing NSG mice in two different experimental settings: • A) at 2 h p.i. using a ligand dose of 1 nmol/animal. These conditions were chosen to allow comparability of the data from this study (Table 3) with previous results in a different tumor model (Hensbergen, A. W. et al., J. Nucl. Med., 2020, 61, 234-241). Here, [^99mTc]mas3-Cy5(SO3)—EuK was additionally included as an internal reference to establish the “missing link” between studies. • B) at 6 h p.i. using a ligand dose of 0.1 nmol/animal (Table 4). The latter settings were adapted to a timeline and dosing with more similarity to the clinical situation (surgery at a later time point, microdosing principle). Of note, however, a ligand amount of 0.1 nmol/mouse (extrapolation: 280 nmol/70 kg patient) still exceeds the potentially applicable clinical dose (48 nmol/70 kg patient for a compound with a molecular weight of −2100 g/mol). Nevertheless, it represents a dose level at which significant competition effects between unlabeled precursor and radioligand for PSMA binding sites in tumor tissue are not probable (Eder A. C. et al., J. Nucl. Med., 2021, 62, 1461-1467; Kalidindi T. M. et al., Eur. J. Nucl. Med. Mol. Imaging, 2021, 48, 2642-2651).

[7] = system: LNCaP xenograft bearing male NSG mice; experiment: Small animal SPECT/CT blocking study with 2-PMPA co-injection; type: in vivo; details: 2-4 h p.i.; 1 nmol; co-injection of 1 μmol 2-PMPA
Experimental: FIG. 1: Small animal SPECT/CT study in LNCaP xenograft bearing male NSG mice at 2-4 h p.i. […] White arrows indicate the position of the LNCaP xenograft. SPECT/CT images were acquired using an Albira Si PET/SPECT/CT (Bruker Biospin Corporation, Woodbridge, CT, USA) instrument. […] For reconstruction, an ordered subset expectation-maximization algorithm (OSEM) with two iterations was used, and scatter correction was applied. For CT, the following parameters were used: 400 μA intensity and 35 kV voltage, 600 projections. Images were reconstructed using a filtered back-projection (FBP) algorithm with de-ringing correction. Fused representative SPECT/CT images were acquired using the PMOD software (PMOD technologies, version 3.709, Zurich, Switzerland).

[8] = tendency to associate with plasma proteins

In the case of `CC(=O)SCC(=O)N[C@H](CO)C(=O)N[C@H](CO)C(=O)N[C@H](CO)C(=O)NCCCCCC(=O)NCCCCN1/C(=C/C=C/C=C/C2=[N+](CCCCCC(=O)NCCCC[C@H](NC(=O)N[C@@H](CCC(=O)O)C(=O)O)C(=O)O)c3ccc(S(=O)(=O)O)cc3C2(C)C)C(C)(C)c2cc(S(=O)(=O)[O-])ccc21` [Ac-mas3-(SO3)Cy5(SO3)-EuK], the “Quantum yield (HSA)” value [1] is reported as 16%, the Brightness (HSA) [1] is reported as 38900 L/mol/cm and the Molar extinction coefficient free dye (HSA) [1] is reported as 243000 L/mol/cm. For the same molecule, the “brightness compared to PSMA-HSG” value ([1]; text b242) was “fivefold lower brightness”, the “reduction in affinity compared to the mono-sulfonated analog Ac-mas3-Cy5(SO3)-EuK” value (PSMA [2]) was “almost eight-fold reduction” and the IC50 (PSMA [2]; LNCaP cells, free mas3-chelator, novel compounds) was 131 ± 29 nM. The “tendency to associate with plasma proteins” value (plasma proteins) was 77.9%, the “fluorescence signal in the xenografts” value ([3]; 2 h p.i., ligand dose 1 nmol, in vivo and ex vivo) was “weakest signal” and the detectable fluorescence signal [3] was “virtually not detectable”.
For `CC(=O)SCC(=O)N[C@H](CO)C(=O)N[C@H](CO)C(=O)N[C@H](CO)C(=O)NCCCCC(=O)NCCCCN1\C(=C/C=C/C=C/C2=[N+](CCCCCC(=O)NCCCC[C@H](NC(=O)N[C@@H](CCC(=O)O)C(=O)O)C(=O)O)c3ccc(S(=O)(=O)[O-])cc3C2(C)C)C(C)(C)c2ccccc21` [Ac-mas3-Cy5(SO3)-EuK], the “Quantum yield (HSA)” value [1] was 21%, the Brightness (HSA) [1] was 33800 L/mol/cm and the Molar extinction coefficient free dye (HSA) [1] was 161000 L/mol/cm. The fraction unbound (Plasma protein binding; [8]) was 0.028, the detectable fluorescence signal [3] was “weak” and the IC50 (PSMA [4]) was 17.8 ± 2.9 nM.
Work on `C[N+]1=C(/C=C/C=C/C=C2/N(CCCCCC(=O)NCCCC[C@@H](NC(=O)[C@@H](CO)NC(=O)[C@@H](CO)NC(=O)[C@@H](CO)NC(=O)CS)C(=O)N[C@H](Cc3ccc(O)cc3)C(=O)N[C@H](Cc3ccc4ccccc4c3)C(=O)N[C@H](CCCCNC(=O)CCCCCCC(=O)NCCCC[C@H](NC(=O)N[C@@H](CCC(=O)O)C(=O)O)C(=O)O)C(=O)O)c3ccc(S(=O)(=O)O)cc3C2(C)C)C(C)(C)c2cc(S(=O)(=O)[O-])ccc21` [[^99mTc]PSMA-HSG, metal not drawn] yielded a logP [5] of -2.94, a fraction unbound (Plasma protein binding; Plasma Protein Binding (%)) of 0.007 and a fraction unbound (Plasma protein binding; [8]) of 0.006. The tissue uptake at 6 h [6] was 17.1 ± 2.9 %ID/g and the “specificity of tracer uptake in tumor and PSMA-positive tissues” value [7] was “PSMA-specific”.
